Reference: paper doi:10.1101/2020.04.06.028423 (bioRxiv, 2020)

T1: His-tagged VP35 IID (VP35 aa 215-340) (Ebola virus (EBOV), UniProt Q05127 215-340)
T1 sequence: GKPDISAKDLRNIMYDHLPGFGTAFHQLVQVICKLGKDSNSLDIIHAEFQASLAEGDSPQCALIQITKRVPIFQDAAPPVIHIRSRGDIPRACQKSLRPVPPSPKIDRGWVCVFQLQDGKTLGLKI


Target: T1, His-tagged VP35 IID (VP35 aa 215-340)
Assay: pull-down

| Binder | binding result |
| --- | --- |
| DDLVLFDLDEDDED (domain or fragment) [GST-NP(481-494)] | binds |
| GST-NP(412-500) (domain or fragment) ASLPKTSGHYDDDDDIPFPGPINDDDNPGHQDDDPTDSQDTTIPDVVVDPDDGSYGEYQSYSENGMNAPDDLVLFDLDEDDEDTKPVPN | binds |
| DDLVLFDLDEDDEDTKPVPN (domain or fragment) [GST-NP(481-500)] | binds |
